The values below come from article PMC10250219.

Where two headings read alike, the source gives them in different places.

Holding throughout (assay): EMSA
In general terms: Mobility shift assays separate free from complexed probe on a gel.

The target in data set [1] is T1, OGG1 WT (untagged) (human, UniProt O15527 1-345).
Data set [2] has as its target T2, OGG1-2NA (untagged) (human, UniProt O15527 1-345, N149A;N150A).
Data set [3] addresses GST-OGG1-G245A (human, UniProt O15527 1-345, G245A).
Data set [4] has as its target T1, OGG1 WT (untagged). This is another data set of the same source.
In data set [5] the target is OGG1-Y203A (untagged) (human, UniProt O15527 1-345, Y203A).
Chain of OGG1-Y203A (untagged) (O15527 whole entry Y203A): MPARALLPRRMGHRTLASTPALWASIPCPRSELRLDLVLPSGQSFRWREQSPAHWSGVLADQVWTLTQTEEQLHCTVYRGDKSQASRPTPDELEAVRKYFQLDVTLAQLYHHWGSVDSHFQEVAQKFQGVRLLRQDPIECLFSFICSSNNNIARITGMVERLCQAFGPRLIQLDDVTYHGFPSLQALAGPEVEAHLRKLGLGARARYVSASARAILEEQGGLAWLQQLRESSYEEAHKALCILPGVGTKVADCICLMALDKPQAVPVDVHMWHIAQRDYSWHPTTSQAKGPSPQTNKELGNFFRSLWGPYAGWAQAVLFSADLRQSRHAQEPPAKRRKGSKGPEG
The target in data set [6] is T2, OGG1-2NA (untagged). The source holds these as a separate data set.

A word on the Kd: it is the concentration at which binding is half-saturated. Low readings indicate tighter binding, high ones weaker binding.

T2 sequence (O15527 whole entry N149A/N150A): as the sequence (O15527 whole entry Y203A) above, with N149A, N150A, A203Y counted along it
Chain of GST-OGG1-G245A (O15527 whole entry G245A): as the sequence (O15527 whole entry Y203A) above, with A203Y, G245A counted along it
T1 sequence (O15527 whole entry): as the sequence (O15527 whole entry Y203A) above, with A203Y counted along it

B1: 24-mer 8-oxoG:C duplex (dsDNA)
DNA 1: CTGATCGATGACGCCTGACATGAT
DNA 2: ATCATGTCAGGCGTCATCGATCAG
modifications: 8-oxoG at position 13 of strand 1 (opposite C)
For the molecule B1, the Kd was found to be 0.42 ± 0.03 nM in data set [1] and 6.37 ± 0.58 nM in data set [2].

B2: Cy5 34-mer 8-oxoG:C duplex (dsDNA)
DNA 1: GGCTTCATCGTTGTCGCAGACCTGGTGGATACCG
DNA 2: CGGTATCCACCAGGTCTGCGACAACGATGAAGCC
modifications: 8-oxoG at position 16 of strand 1 (opposite C)
As for B2, in data set [3], the binding result is reported as “no binding”.

B3: Cy5 34-mer G:C duplex (dsDNA)
DNA 1: GGCTTCATCGTTGTCGCAGACCTGGTGGATACCG
DNA 2: CGGTATCCACCAGGTCTGCGACAACGATGAAGCC
Turning to B3, in data set [3], the binding result is listed as “no binding”.

B4: 24-mer G:C duplex (dsDNA)
DNA 1: CTGATCGATGACGCCTGACATGAT
DNA 2: ATCATGTCAGGCGTCATCGATCAG
B4: the figures for the Kd in data set [4], in data set [5] and in data set [6] were 2220 ± 220 nM, 1970 ± 270 nM and 602 ± 42 nM, respectively.
